Measured values from patent US20060258607.

Biological target: biotinylated human D-ghrelin (octanoylated) (Homo sapiens) (UniProt Q9UBU3)
Test: pulldown
Conditions: 37 C, 1 mM Ca/Mg, 47% active

Chain of UniProt Q9UBU3 (Q9UBU3 24-51): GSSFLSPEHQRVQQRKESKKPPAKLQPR

Sequence: CGUGUGAGGCAAUAAAACUUAAGUCCGAAGGUAACCAAUCCUACACG [SOT-C (B11trc, D-RNA)]
- Kd: 100 nM
